B1: EMID1 (parent)
chain: FTETNNHWPQGPTGPPGPPGPMGP
B2: KCNA4 (parent)
chain: YQSGGRLKRPVNVPFDIFTEEVKF

Variants of: B1
Test: protein stability index of a GFP-peptide fusion (GPS, HEK-293T) (PSI 1-6); higher = more stable
Settings: c terminus: a fixed tail appended
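Note: lentivirally expressed fusions sorted by FACS into six bins by GFP to DsRed ratio, PSI derived from sequencing read proportions per bin multiplied by bin number.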

| Variant | protein stability index |
| --- | --- |
| P15M | 2.02 |
| P15H | 2.62 |
| P15F | 2.11 |
| P15K | 2.27 |
| P15L | 2.34 |
| P15S | 2.88 |
| P15Y | 2.58 |
| P16M | 2.47 |
| P16D | 2.56 |
| P16C | 2.5 |
| P16L | 2.14 |
| P16E | 2.54 |
| P16N | 2.23 |
| P16G | 2.4 |
| P16A | 2.65 |
| P16Y | 2.07 |
| P16R | 2.52 |
| P16F | 2.02 |
| P16V | 3.19 |
| P16S | 2.1 |
| P16K | 1.83 |
| P16T | 2.58 |
| P16I | 2.33 |
| P19N | 1.8 |
| P19S | 2 |
| P19E | 2.19 |

| Variant | protein stability index |
| --- | --- |
| P19I | 2.72 |
| P19D | 2.68 |
| P19Y | 1.36 |
| P19G | 2.79 |
| P19F | 1.79 |
| P19K | 1.94 |
| P19L | 2.41 |
| P19V | 1.89 |
| P19M | 1.93 |
| P18I | 1.93 |
| P18Y | 2.33 |
| P18N | 1.47 |
| P18Q | 1.93 |
| P18E | 2.11 |
| P18F | 2 |
| P18L | 2.17 |
| P18M | 1.68 |
| P18W | 2.55 |
| P18C | 1.53 |
| P18D | 2.68 |
| P18R | 2.56 |
| P18G | 1.82 |
| P18K | 2.51 |
| P18V | 2.37 |
| P18S | 2.45 |

Variants of: B2
Test: as above
Settings: c terminus: a fixed tail appended

| Variant | protein stability index |
| --- | --- |
| D16R | 2.48 |
| D16M | 1.54 |
| D16L | 1.85 |
| D16S | 1.21 |
| D16E | 2.08 |
| D16N | 2.03 |
| D16A | 1.83 |
| P14T | 1.51 |
| P14C | 2.19 |
| F18K | 1.84 |
| F18M | 2.02 |
| F18D | 2.01 |
| F18L | 2.5 |
| F18Q | 2.65 |
| T19F | 2.1 |
| T19R | 1.2 |
| T19I | 1.72 |
| T19W | 1.41 |
| V13C | 2.18 |
| V13Q | 1.66 |
| V13L | 1.78 |
| E20S | 1.92 |
| E20T | 1.53 |
| E20K | 1.7 |

| Variant | protein stability index |
| --- | --- |
| V11N | 2.74 |
| V11T | 2.15 |
| V11D | 1.91 |
| G4S | 1.99 |
| G4W | 2.56 |
| G4N | 1.73 |
| G4H | 2.33 |
| G4I | 2.36 |
| G4P | 3.26 |
| G4R | 2.14 |
| G4Y | 1.27 |
| P10D | 1.38 |
| P10I | 1.72 |
| P10M | 1.4 |
| P10Q | 2.2 |
| Y1R | 3.12 |
| Y1C | 2.81 |
| Y1I | 1.93 |
| Y1H | 2.88 |
| Y1P | 2.29 |
| R9G | 2.31 |
| R9P | 1.72 |
| R9V | 1.69 |
| F15H | 2.47 |

| Variant | protein stability index |
| --- | --- |
| F15R | 2.83 |
| F15D | 2.6 |
| F15P | 2.01 |
| F15L | 2.15 |
| N12Y | 1.55 |
| N12A | 1.65 |
| G5S | 1.81 |
| G5L | 1.49 |
| G5W | 1.59 |
| G5N | 1.94 |
| G5P | 2.53 |
| G5C | 1.73 |
| G5D | 2.11 |
| G5E | 2.29 |
| G5Y | 1.26 |
| Q2S | 2.58 |
| Q2Y | 1.55 |
| Q2M | 2.56 |
| Q2W | 1.48 |
| Q2K | 2.14 |
| S3N | 1.98 |
| S3F | 1.51 |
| S3L | 2.13 |
| S3I | 1.63 |

| Variant | protein stability index |
| --- | --- |
| S3T | 2.32 |
| S3H | 2.5 |
| S3R | 1.37 |
| S3K | 2.27 |
| L7G | 1.84 |
| L7Q | 1.68 |
| L7T | 2.15 |
| L7V | 2.28 |
| L7A | 1.71 |
| L7H | 1.8 |
| E21A | 1.89 |
| E21S | 1.24 |
| E21C | 1.7 |
| E21G | 2.36 |
| E21P | 2.13 |
| E21T | 1.81 |
| F24E | 2.32 |
| F24D | 2.11 |
| F24W | 1.92 |
| F24T | 2.18 |
| I17D | 2.83 |
| I17F | 2.25 |
| I17Y | 1.99 |
| V22K | 1.59 |

| Variant | protein stability index |
| --- | --- |
| V22N | 1.83 |
| V22Y | 2.25 |
| V22H | 1.86 |
| V22L | 1.99 |
| V22P | 1.54 |
| K23D | 1.82 |
| K23H | 1.71 |
| K23L | 2.53 |
| K23N | 2.3 |
| K23A | 1.35 |
| K8R | 2.67 |
| K8S | 1.93 |
| K8E | 1.98 |
| K8V | 1.53 |
| K8N | 2.23 |
| R6M | 1.47 |
| R6Y | 2.51 |
| R6G | 1.71 |
| R6L | 1.51 |
| R6A | 2.19 |
